# How the values were obtained:
# Assay in all cases: not stated; tetrameric assembly of the BRIL-KcsA linker constructs; how it was judged is not told
# [1] = target: BRIL-AAAAA-KcsA (construct 4) (UniProt P0A334)
# [2] = target: BRIL-2turn-KcsA (construct 7) (UniProt P0A334)
# [3] = target: BRIL-AAAA-KcsA (construct 3, 1 turn) (UniProt P0A334)
# [4] = target: BRIL-AARAAA-KcsA (construct 5) (UniProt P0A334)
# [5] = target: BRIL-AARAAAA-KcsA (construct 6) (UniProt P0A334)
# [6] = target: BRIL-AAA-KcsA (construct 2) (UniProt P0A334)
substance,measurement,setting,value
BRIL-AAAAA-KcsA (construct 4) (from UniProt P0A334 24-160),stoichiometry N,[1],4
BRIL-2turn-KcsA (construct 7) (from UniProt P0A334 24-160),stoichiometry N,[2],4
"BRIL-AAAA-KcsA (construct 3, 1 turn) (from UniProt P0A334 24-160)",stoichiometry N,[3],4
BRIL-AARAAA-KcsA (construct 5) (from UniProt P0A334 24-160),stoichiometry N,[4],4
BRIL-AARAAAA-KcsA (construct 6) (from UniProt P0A334 24-160),stoichiometry N,[5],4
BRIL-AAA-KcsA (construct 2) (from UniProt P0A334 24-160),stoichiometry N,[6],4
